Data on 17 molecules can be found in US20220177604A1 (ARGENX, published 2022).

The target in assay [1] is T1, human immunoglobulin E (hIgE) (human, UniProt P01854-1 1-428).
T1 construct: also called human IgE; Native IgE (Abcam)
As to the kind of experiment: SPR (Biacore) on hIgE. For orientation: In SPR one partner is held on a chip, and binding of the other changes the refractive index at the surface.
Experimental: The ratio of KD measured at pH 5.5 versus KD measured at pH 7.4 was calculated for each of the CL-2C antibodies.

The target in assay [2] is T1, human immunoglobulin E (hIgE). Put plainly: SPR (Biacore).
Assay [3] shares this target. Put plainly: SPR (Biacore), pH 6.0.
Assay [4] has the same target. As to the kind of experiment: SPR (Biacore), pH 7.4.
The target is the same in assay [5]. As to the kind of experiment: competition ELISA, hIgE to hFcεRIα. For orientation: ELISA stands for enzyme-linked immunosorbent assay.
Assay [6] has as its target T2, recombinant Motavizumab human IgE (rMota-hIgE) (human, UniProt P01854 1-428).
T2 construct: also called Recombinant IgE (argenx)
Put plainly: hIgE binding ELISA, pH 7.4.
Experimental: Briefly a Maxisorp plate was coated with recombinant human respiratory syncytial virus protein F (RSV-F) (0.5 μg/mL), then blocked with PBS with 3% BSA and 0.05% Tween. […] After several washing steps at pH 7.4 or pH 5.5, detection of the bound mAbs was carried out with an anti-human Fc-HRP antibody.

In general, Kd refers to a measure of binding affinity in units of concentration. A high value points to a looser complex. By koff is commonly meant the rate constant with which the complex falls apart. Low readings indicate slow dissociation, high ones fast dissociation. The term kon denotes the second-order rate constant of association. The low end stands for slow association, the high end for fast association. As a reminder, the IC50 is the concentration that gives 50% inhibition. Read a high IC50 as weaker potency in that assay. Usually EC50 stands for the concentration giving half of the maximal effect.

T2 sequence (P01854 other isoform, or with tags, fused parts or gaps limits assumed, form in doubt): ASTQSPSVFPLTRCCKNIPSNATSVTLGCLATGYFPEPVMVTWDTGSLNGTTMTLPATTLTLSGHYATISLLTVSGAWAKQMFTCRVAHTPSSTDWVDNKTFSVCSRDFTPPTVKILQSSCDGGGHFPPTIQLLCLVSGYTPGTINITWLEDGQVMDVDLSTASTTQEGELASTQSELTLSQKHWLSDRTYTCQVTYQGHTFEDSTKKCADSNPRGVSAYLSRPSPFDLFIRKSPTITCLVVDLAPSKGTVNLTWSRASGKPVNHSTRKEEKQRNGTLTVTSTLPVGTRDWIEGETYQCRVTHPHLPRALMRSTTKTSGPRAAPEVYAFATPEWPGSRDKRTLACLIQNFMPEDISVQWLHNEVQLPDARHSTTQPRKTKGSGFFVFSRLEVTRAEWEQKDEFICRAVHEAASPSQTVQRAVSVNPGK
T1 sequence (P01854 whole entry): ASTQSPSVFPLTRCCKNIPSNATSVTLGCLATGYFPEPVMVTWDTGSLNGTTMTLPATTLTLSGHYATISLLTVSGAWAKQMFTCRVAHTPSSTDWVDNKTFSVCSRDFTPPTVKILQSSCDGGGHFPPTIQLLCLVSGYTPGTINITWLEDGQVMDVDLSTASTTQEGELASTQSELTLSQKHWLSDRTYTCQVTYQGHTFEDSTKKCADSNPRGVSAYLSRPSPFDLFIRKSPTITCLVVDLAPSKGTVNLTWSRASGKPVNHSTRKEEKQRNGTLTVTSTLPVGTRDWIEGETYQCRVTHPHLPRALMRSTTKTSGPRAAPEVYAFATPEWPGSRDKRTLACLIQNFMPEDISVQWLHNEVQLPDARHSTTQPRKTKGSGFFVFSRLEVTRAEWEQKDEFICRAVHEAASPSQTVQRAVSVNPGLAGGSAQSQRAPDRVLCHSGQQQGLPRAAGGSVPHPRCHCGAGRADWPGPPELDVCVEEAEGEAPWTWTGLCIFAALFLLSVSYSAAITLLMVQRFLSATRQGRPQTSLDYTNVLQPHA

B1: CL-2C mAb 27 (antibody, V domains shown)
VH: QVQLVQSGAEVMKPGSSVKVSCKASGYTFSWYHLEWVRQAPGHGLEWMGEIDPGTFTTNYNEKFKARVTFTADTSTSTAYMELSSLRSEDTAVYYCARFSHFSGSNHDYFDYWGQGTLVTVSS
VL: EIVMTQSPATLSVSPGERATLSCRASQSIGTNIHWYQQKPGQAPRLLIYHASESISGIPARFSGSGSGTEFTLTISSLQSEDFAVYYCQQSWSWPTTFGGGTKVEIK
notes: also called VK50H + VH33H100CH
On to B1, for which the “KD Ratio pH 5.5/pH 7.4” value in assay [1] amounted to 7.4.

B2: CL-2C mAb 28 (antibody, V domains shown)
VH: QVQLVQSGAEVMKPGSSVKVSCKASGYTFSWYHLEWVRQAPGHGLEWMGEIDPGTFTTNYNEKFKARVTFTADTSTSTAYMELSSLRSEDTAVYYCARFSHFSGSHYDYFDYWGQGTLVTVSS
VL: EIVMTQSPATLSVSPGERATLSCRASQSIGTNIHWYQQKPGQAPRLLIYHASESISGIPARFSGSGSGTEFTLTISSLQSEDFAVYYCQQSWSWPTTFGGGTKVEIK
notes: also called VK50H + VH33H100BH
In the case of B2, the “KD Ratio pH 5.5/pH 7.4” value in assay [1] worked out at 9.

B3: CL-2C mAb 35 (antibody, V domains shown)
VH: QVQLVQSGAEVMKPGSSVKVSCKASGYTFSWYWLEWVRQAPGHGLEWMGEIDPGTFTTNYNEKFKARVTFTADTSTSTAYMELSSLRSEDTAVYYCARFSHFSGSNYDYFDYWGQGTLVTVSS
VL: EIVMTQSPATLSVSPGERATLSCRASQSIGTNIHWYQQKPGQAPRLLIYYASESISGIPARFSGSGSGTEFTLTISSLQSEDFAVYYCQQSWSHPTTFGGGTKVEIK
notes: also called VK94H + VHWT
In the case of B3, the “KD Ratio pH 5.5/pH 7.4” value in assay [1] was found to be 0.6.

B4: CL-2C mAb 39 (antibody, V domains shown)
VH: QVQLVQSGAEVMKPGSSVKVSCKASGYTFSWYHLEWVRQAPGHGLEWMGEIDPGTFTTNYNEKFKARVTFTADTSTSTAYMELSSLRSEDTAVYYCARFSHFSGHNYDYFDYWGQGTLVTVSS
VL: EIVMTQSPATLSVSPGERATLSCRASQSIGTNIHWYQQKPGQAPRLLIYYASESISGIPARFSGSGSGTEFTLTISSLQSEDFAVYYCQQSWSWPTTFGGGTKVEIK
notes: also called VKWT + VH33H100AH
In the case of B4, in assay [1], the “KD Ratio pH 5.5/pH 7.4” value worked out at 4.6.

B5: CL-2C mAb 32 (antibody, V domains shown)
VH: QVQLVQSGAEVMKPGSSVKVSCKASGYTFSWYHLEWVRQAPGHGLEWMGEIDPGTFTTNYNEKFKARVTFTADTSTSTAYMELSSLRSEDTAVYYCARFSHFSGSNHDYFDYWGQGTLVTVSS
VL: EIVMTQSPATLSVSPGERATLSCRASQSIGTNIHWYQQKPGQAPRLLIYYASESISGIPARFSGSGSGTEFTLTISSLQSEDFAVYYCQQSWSHPTTFGGGTKVEIK
notes: also called VK94H + VH33H100CH
For the molecule B5, the “KD Ratio pH 5.5/pH 7.4” value in assay [1] stood at 6.2.

B6: CL-2C mAb 36 (antibody, V domains shown)
VH: QVQLVQSGAEVMKPGSSVKVSCKASGYTFSWYWLEWVRQAPGHGLEWMGEIDPGTFTTHYNEKFKARVTFTADTSTSTAYMELSSLRSEDTAVYYCARFSHFSGSHYDYFDYWGQGTLVTVSS
VL: EIVMTQSPATLSVSPGERATLSCRASQSIGTNIHWYQQKPGQAPRLLIYYASESISGIPARFSGSGSGTEFTLTISSLQSEDFAVYYCQQSWSWPTTFGGGTKVEIK
notes: also called VKWT + VH58H100BH
In the case of B6, the “KD Ratio pH 5.5/pH 7.4” value in assay [1] worked out at 4.3.

B7: CL-2C mAb 31 (antibody, V domains shown)
VH: QVQLVQSGAEVMKPGSSVKVSCKASGYTFSWYWLEWVRQAPGHGLEWMGEIDPGTFTTHYNEKFKARVTFTADTSTSTAYMELSSLRSEDTAVYYCARFSHFSGSHYDYFDYWGQGTLVTVSS
VL: EIVMTQSPATLSVSPGERATLSCRASQSIGTNIHWYQQKPGQAPRLLIYYASESISGIPARFSGSGSGTEFTLTISSLQSEDFAVYYCQQSWSHPTTFGGGTKVEIK
notes: also called VK94H + VH58H100BH
With B7, the “KD Ratio pH 5.5/pH 7.4” value in assay [1] was 5.5.

B8: CL-2C mAb 34 (antibody, V domains shown)
VH: QVQLVQSGAEVMKPGSSVKVSCKASGYTFSWYHLEWVRQAPGHGLEWMGEIDPGTFTTNYNEKFKARVTFTADTSTSTAYMELSSLRSEDTAVYYCARFSHFSGHNYDYFDYWGQGTLVTVSS
VL: EIVMTQSPATLSVSPGERATLSCRASQSIGTNIHWYQQKPGQAPRLLIYYASESISGIPARFSGSGSGTEFTLTISSLQSEDFAVYYCQQSWSHPTTFGGGTKVEIK
notes: also called VK94H + VH33H100AH
With B8, the “KD Ratio pH 5.5/pH 7.4” value in assay [1] worked out at 3.

B9: CL-2C mAb 29 (antibody, V domains shown)
VH: QVQLVQSGAEVMKPGSSVKVSCKASGYTFSWYHLEWVRQAPGHGLEWMGEIDPGTFTTNYNEKFKARVTFTADTSTSTAYMELSSLRSEDTAVYYCARFSHFSGHNYDYFDYWGQGTLVTVSS
VL: EIVMTQSPATLSVSPGERATLSCRASQSIGTNIHWYQQKPGQAPRLLIYHASESISGIPARFSGSGSGTEFTLTISSLQSEDFAVYYCQQSWSWPTTFGGGTKVEIK
notes: also called VK50H + VH33H100AH
Consider B9, for which the “KD Ratio pH 5.5/pH 7.4” value in assay [1] turned out to be 3.8.

B10: CL-2C mAb 38 (antibody, V domains shown)
VH: QVQLVQSGAEVMKPGSSVKVSCKASGYTFSWYHLEWVRQAPGHGLEWMGEIDPGTFTTNYNEKFKARVTFTADTSTSTAYMELSSLRSEDTAVYYCARFSHFSGSHYDYFDYWGQGTLVTVSS
VL: EIVMTQSPATLSVSPGERATLSCRASQSIGTNIHWYQQKPGQAPRLLIYYASESISGIPARFSGSGSGTEFTLTISSLQSEDFAVYYCQQSWSWPTTFGGGTKVEIK
notes: also called VKWT + VH33H100BH
As for B10, the “KD Ratio pH 5.5/pH 7.4” value in assay [1] is 6.5.

B11: CL-2C mAb 33 (antibody, V domains shown)
VH: QVQLVQSGAEVMKPGSSVKVSCKASGYTFSWYHLEWVRQAPGHGLEWMGEIDPGTFTTNYNEKFKARVTFTADTSTSTAYMELSSLRSEDTAVYYCARFSHFSGSHYDYFDYWGQGTLVTVSS
VL: EIVMTQSPATLSVSPGERATLSCRASQSIGTNIHWYQQKPGQAPRLLIYYASESISGIPARFSGSGSGTEFTLTISSLQSEDFAVYYCQQSWSHPTTFGGGTKVEIK
notes: also called VK94H + VH33H100BH
On to B11, for which the “KD Ratio pH 5.5/pH 7.4” value in assay [1] came to 7.

B12: CL-2C mAb 30 (antibody, V domains shown)
VH: QVQLVQSGAEVMKPGSSVKVSCKASGYTFSWYWLEWVRQAPGHGLEWMGEIDPGTFTTNYNEKFKARVTFTADTSTSTAYMELSSLRSEDTAVYYCARFSHFSGSNYDYFDYWGQGTLVTVSS
VL: EIVMTQSPATLSVSPGERATLSCRASQSIGTNIHWYQQKPGQAPRLLIYHASESISGIPARFSGSGSGTEFTLTISSLQSEDFAVYYCQQSWSWPTTFGGGTKVEIK
notes: also called VK50H + VHWT
Take B12: the “KD Ratio pH 5.5/pH 7.4” value in assay [1] was determined as 1.

B13: CL-2C mAb 40 (antibody, V domains shown)
VH: QVQLVQSGAEVMKPGSSVKVSCKASGYTFSWYWLEWVRQAPGHGLEWMGEIDPGTFTTNYNEKFKARVTFTADTSTSTAYMELSSLRSEDTAVYYCARFSHFSGSNYDYFDYWGQGTLVTVSS
VL: EIVMTQSPATLSVSPGERATLSCRASQSIGTNIHWYQQKPGQAPRLLIYYASESISGIPARFSGSGSGTEFTLTISSLQSEDFAVYYCQQSWSWPTTFGGGTKVEIK
notes: also called VKWT + VHWT
For the molecule B13, the “KD Ratio pH 5.5/pH 7.4” value in assay [1] stood at 0.6.

B14: Oma VH15W100b - VL3D28H (antibody, V domains shown)
VH: EVQLVESGGGLVQPGGSLRLSCAVSGYSITSGHRWEWIRQAPGKGLEWVASIHYDGSTNYNPSVKGRITISRDDSKNTFYLQMNSLRAEDTAVYYCARATHYFGHHHFAVWGQGTLVTVSS
VL: DIQLTQSPSSLSASVGDRVTITCRASQSVDYHGDSYMNWYQQKPGKAPKLLIEWGSYLRSGVPSRFSGSGSGTDFTLTISSLQPEDFATYYCQQNAEDPYTFGQGTKVEIK
notes: also called Oma VH15W100b VL3D25H
In the case of B14, in assay [2], the “Ratio pH 7.4/pH6.0 (of KD)” value was 7.5. Also, in assay [3], the Kd amounted to 64.5 nM, the koff was 0.0148 s⁻¹ and the kon was found to be 232000 M⁻¹ s⁻¹. Moreover, in assay [4], binding was put at a Kd of 8.59 nM, the koff worked out at 0.00182 s⁻¹ and the kon amounted to 213000 M⁻¹ s⁻¹. In addition, the IC50 in assay [5] is 35 nM. Also, in assay [6], the EC50 came to 0.015 µg/mL.

B15: OmaVH15G55HW100b - VL3D28HS31H (antibody, V domains shown)
VH: EVQLVESGGGLVQPGGSLRLSCAVSGYSITSGHRWEWIRQAPGKGLEWVASIHYDHSTNYNPSVKGRITISRDDSKNTFYLQMNSLRAEDTAVYYCARATHYFGHHHFAVWGQGTLVTVSS
VL: DIQLTQSPSSLSASVGDRVTITCRASQSVDYHGDHYMNWYQQKPGKAPKLLIEWGSYLRSGVPSRFSGSGSGTDFTLTISSLQPEDFATYYCQQNAEDPYTFGQGTKVEIK
notes: human IgG1
With B15, in assay [4], the koff stood at 0.00356 s⁻¹. The molecule also displayed an IC50 in assay [5] of 9.49 nM.

B16: Oma VH15W100b - VL3S31H (antibody, V domains shown)
VH: EVQLVESGGGLVQPGGSLRLSCAVSGYSITSGHRWEWIRQAPGKGLEWVASIHYDGSTNYNPSVKGRITISRDDSKNTFYLQMNSLRAEDTAVYYCARATHYFGHHHFAVWGQGTLVTVSS
VL: DIQLTQSPSSLSASVGDRVTITCRASQSVDYDGDHYMNWYQQKPGKAPKLLIEWGSYLRSGVPSRFSGSGSGTDFTLTISSLQPEDFATYYCQQNAEDPYTFGQGTKVEIK
Regarding B16, the “Ratio pH 7.4/pH6.0 (of KD)” value in assay [2] was 31.1. In assay [3], this molecule had a Kd of 190 nM, a koff of 0.0375 s⁻¹ and a kon of 206000 M⁻¹ s⁻¹. For the same molecule, in assay [4], the Kd came out at 6.12 nM, the koff was found to be 0.00244 s⁻¹ and the kon came to 398000 M⁻¹ s⁻¹. Besides, the EC50 in assay [6] is 0.0152 µg/mL.

B17: Oma VH15W100b - VL3D28HS31H (antibody, V domains shown)
VH: EVQLVESGGGLVQPGGSLRLSCAVSGYSITSGHRWEWIRQAPGKGLEWVASIHYDGSTNYNPSVKGRITISRDDSKNTFYLQMNSLRAEDTAVYYCARATHYFGHHHFAVWGQGTLVTVSS
VL: DIQLTQSPSSLSASVGDRVTITCRASQSVDYHGDHYMNWYQQKPGKAPKLLIEWGSYLRSGVPSRFSGSGSGTDFTLTISSLQPEDFATYYCQQNAEDPYTFGQGTKVEIK
In the case of B17, the “Ratio pH 7.4/pH6.0 (of KD)” value in assay [2] was 23.5. In assay [3], the Kd was determined as 206 nM, the koff turned out to be 0.0895 s⁻¹ and the kon worked out at 453000 M⁻¹ s⁻¹. In assay [4], binding was put at a Kd of 8.78 nM, the koff was 0.00251 s⁻¹ and the kon is 290000 M⁻¹ s⁻¹. Moreover, in assay [5], the IC50 is 585 nM. In addition, in assay [6], the EC50 is 0.0156 µg/mL.
